# Measured values reported in the DeepSol protein solubility set.
# Test: soluble on expression in E. coli; label from the status in PepcDB or PDB records
row,Sequence,soluble on expression in E. coli
1,MGSDKIHHHHHHMRVNSQSNHDVSPAPSGVVLEAADPAELLVRAQKTLGLLSPLLSPLAQAFHDRGHRLYLVGGSVRDALLDELGHDLDCTTDARPEVVSAILEEYAPVVWDTGIEFGTVSAEKDGQQIEITTFRSDVYDGQSRNPEVQFGDTLEGDLIRRDFTVNAMAMEILPDGSMQFHDPVGGMNDLVAGLLDTPATPQQSFNDDPLRMLRAARFVSQLGFDLAPRVRHAMTEMADQITRITAERVQVELDKMICGKVPWDGIDVMVDTGLADIIYPEISALRLTQDEHHQHKDVYAHSLTVLRQAMDQEEDGPDVVLRWAALMHDCGKPDTREFSPEGRVSFHQHEIVGARLMRHRMRALKYSKHTIRDVSELIRLHMRFHGFSEGEWTDSAVRRYVTDAGDLLPRLHKLVRADCTTRNKKKAERLQKTYDHLEDRIADIAAKEDLAKVRPDLDGNEIMEILDIKAGPQVGQAWKFLKELRLERGPLEREDAILELKKWWYEQ,not soluble
2,MGKGDPKKPRGKMSSYAFFVQTCREEHKKKHPDASVNFSEFSKKCSERWKTMSAKEKGKFEDMAKADKARYEREMKTYIPPKGETKKKFKDPNAPKRPPSAFFLFCSEYRPKIKGEHPGLSIGDVAKKLGEMWNNTAADDKQPYEKKAAKLKEKYEKDIAAYRAKGKPDAAKKGVVKAEKSKKKKEEEEDEEDEEDEEEEEDEEDEDEEEDDDDE,soluble
3,MKIAITGATGFVGQRLVERLQAEGHELRILSQRPTVAQQLTGCQVFDTATETSWLAALEGADAVVNLAGEPIAEQRWTPAQKQRLKNSRVQTTRALVTAITAATQKPQVLVTASAIGYYGTSETAQFTEESAAGQDYLAEICQAWEQEAQAVTVSGTRLVTLRIGIVVGPGGAIGKMLGPFKLFAGGPIGSGRQWVSWIQREDLVSLILEAIANPSYQGTYNATAPQAVRMADLSATLGEVLQRPSWLPVPAFALEALLGEGALLVLEGQQVLPKRLEAAGFQFRYPDLKSALQQFLPLEHHHHHH,not soluble
4,MGSDKIHHHHHHMDSAYVFDSEQATKLLMKNYELVKTSGVSFIDKRIRFLIARLFAGNNEVVDPEEFSEINKEIKRQLGMFTALNGNVRASLVGLLMANDNASRESVQQVIANYNTLIQAGFQRTEYTYFAAYLLLESENPKKTARKAKTIHQLFKKDHPFLTKSEDVTTAVFLANLPEENTTKLAEITEYYFQEFAAKGFRKNDSLQFLATTGTLLYGEKDSKFIRRVDNIVEELRQKGIKVKPLHYSSIGILAFVMDARKIDSGLVNLIDELQQQPGLRFGREFVTALAISLYTEKQSGQMSKEQLEGLMVNVHILIAMEQAAAVSAAAAASAAAASS,not soluble
5,MKTEEMKFINESEFKKLKHYFEQKNTTSSLVLLVALTTGGRFSEIAKLKREDLDIKNNKIHLRGTKTETSDRIISIDTVTMKRIQSFIDSRPTNISGYIFTVDGKTITNAAVNKVLRKACANLNIKEITIHSLRHSFCSILIHHGFSILYISKHLGHSNPATTQSIYSHLLQETYEREDELEHHHHHH,not soluble
6,MSLAVEIACLDLEGVLVPEIWIAFAEKTGIESLRATTRDIPDYDVLMKQRLRILDEHGLKLADIQAVISTLKPLEGAVEFVDWLRERFQVVILSDTFYEFSQPLMRQLGFPTLLCHRLITDETDRVVSYQLRQKDPKRQSVLAFKSLYYRIIAAGDSYNDTTMLGEADAGILFHAPDNVIREFPQFPAVHTFDELKKEFIKASNRELVLEGHHHHHH,soluble
7,VLDPLGPGAPVLVAGGRVTGQAVAAVLTRFGATPTVCDDDPVMLRPHAERGLPTVSSSDAVQQITGYALVVASPGFSPATPLLAAAAAAGVPIWGDVELAWRLDAAGCYGPPRSWLVVTGTNGKTTTTSMLHAMLIAGGRRAVLCGNIGSAVLDVLDEPAELLAVELSSFQLHWAPSLRPEAGAVLNIAEDHLDWHATMAEYTAAKARVLTGGVAVAGLDDSRAAALLDGSPAQVRVGFRLGEPAARELGVRDAHLVDRAFSDDLTLLPVASIPVPGPVGVLDALAAAALARSVGVPAGAIADAVTSFRVGRHRAEVVAVADGITYVDDSKATNPHAARASVLAYPRVVWIAGGLLKGASLHAEVAAMASRLVGAVLIGRDRAAVAEALSRHAPDVPVVQVVAGEDTGMPATVEVPVACVLDVAKDDKAGETVGAAVMTAAVAAARRMAQPGDTVLLAPAGASFDQFTGYADRGEAFATAVRAVIR,not soluble
8,MGSDKIHHHHHHVKKSESLPVLIVTGLSGAGKSTVLNVFEDLRFFTIDGLPVGVVADLLEHLARDAMGRYRGVVLGMDLRQFDFLDEFEGALMRLEKMGVSPRIIYLEADSDTLVRRFATTRRPHPLEGGDLGLEAAVEHERNLLAPVRERADLILDTSEFSIHDLRRIVQKKWSSLGGSLRSLRVNLITFGFKYGVPSDADMVFDLRFLPNPYFDAKLKALSGKDPEIQQFVLGCEQGKTFFKRFLDFLLFLLPQYEAEGRYRITLAIGCTGGRHRSVSTAEALRDALKKSDYAVSLEHRHIDLG,not soluble
9,MALSKTIATVTRRICERSAPTREIYLDRIAKAQANHPKRSFLGCANQAHGFAACGSIDKKRLKRNIVGNIGIITAYNDILSAHQPFESFPHLIKETARMFGGVAQVAGGVPAMCDGVTQGNTGMELSLFSRDVIAMATAIGLSHDMFDAALYLGVCDKIVPGLVIGALTFGHLPGIFVPAGPMTSGQGNDEKAKIRQLYAENKIDRQTLLESEARSYHGPGTCTFYGTANSNQVILEMMGLHMPGSSFINANTPLRDALTKEATKRVLEMIALGDSYSPIGLIVDERSFVNAVVGLNATGGSTNHAIHLIAMAAAAGILLTWHDIAEISSVVPLLARIYPNGLADINHFHAAGGMGFVIRELIEAGLVHEDVCTVFGKDLNAYAIEAKLCNDDNVVREPALNESANHKVLTGWRKPFQSDGGIRILLGDLGTAIMKVSSVKSEYWRIEAPVLVFNDQEELQEAFKAGVLNDKDFIAVIRYQGPKANGMPELHKLTTILGVLQDRGQKVALVTDGRMSGASGKIPAAIHVTPEALDDGPIARLQNGDVVCLDAHVGKLAILEDKVEFNARKITLPDLSKNEYGVGRELFRIFRHSVNRADQGASVLIA,not soluble
10,DNPLESPPPEIVKQGKEAVRQYFQSIEEARSKGEALVHLQEIKVHLIGDGMAGKTSLLKQLIGETFDPKESQTHGLNVVTKQAPNIKGLENDDELKECLFHFWDFGGQEIMHASHQFFMTRSSVYMLLLDSRTDSNKHYWLRHIEKYGGKSPVIVVMNKIDENPSYNIEQKKINERFPAIENRFHRISCKNGDGVESIAKSLKSAVLHPDSIYGTPLAPSWIKVKEKLVEATTAQRYLNRTEVEKICNDSGITDPGERKTLLGYLNNLGIVLYFEALDLSEIYVLDPHWVTIGVYRIINSSKTKNGHLNTSALGYILNEEQIRCDEYDPAKNNKFTYTLLEQRYLLDIMKQFELCYDEGKGLFIIPSNLPTQIDNEPEITEGEPLRFIMKYDYLPSTIIPRLMIAMQHQILDRMQWRYGMVLKSQDHEGALAKVVAETKDSTITIAIQGEPRCKREYLSIIWYEIKKINANFTNLDVKEFIPLPGHPDELVEYKELLGLEKMGRDRYVSGKLEKVFSVSKMLDSVISKEERNKER,soluble
11,MGSDKIHHHHHHMFSIAIQQQQYKTYILSDETTGSQLEVVPERGGIITRWRVKGEEILYLDAERFTHPDLSVRGGVPILFPICGNLPDNSYTLNGQQYTLKQHGFARDLPWEVVEQTTKDTAALTLVLRSNEQTKAVYPFDFQLVFTYVLQGNTLEIRQEYQNLSSTQLPFSAGFHPYFLTGDKNQLEFDIPSQEYQDQQTKEVHPFNGNFDFNRDEMDFAFGHITSQSASVIDRNRQFKLTLDADDIFSMLVFWTLKGKEFYCLEPWSAPRNSLNTGEKLTVLEPGTSYKASVRLSASFF,not soluble
12,MGSDKIHHHHHHMIILGIHDGHDAGAVLLNDEEIYAVNEERLNRVKKYRGFPELSIRKVLEMSGTEPDDVDVIAIAGLFRRQKRLLELEHKLKSIFGPKFKEKAIFVEHHLAHASSAYYSSGLRDAVVLTIDAAGDGLSSTVSIAKDGQMFRIAQSTYIDSLGDFYASVTELLGFKPMRHEGKVMSLAAYGNPRYELSAIIELNGLTFENKLKVIGTEATKKLAEFFEFPLEKAKEVSSNLKRGIMDNELEKKAIEIAASAQAHLERLIEEMGLELKKYELPIAYAGGVAQNVKANAILRRIFGDIWIFPAMDDAGLAFGAAIYVKAQMELLFGKWKPFKLKHVFLGPSYSPEEIEEILKREGLEYEEVDVPSFVADSLVEGKLVGLFQGRLEYGPRALGNRSILADPRNEKVREKLNLALRRDVFQPFAPSILEERFPDYIEDLTGEPNRFMTMSYLASEEFMEVAPAVVHIDGTTRPQSVPKDLGTYYKIIRRFEKRTGVGAVLNTSFNMHGEPIVCSPLDAIRTAKSAKLDVLLLERFGVYIV,not soluble
13,AHHHHHHGSEKPRFKGHLKLLILKLLEENPLHGYGIMTRLEETFGIKVSPGAIYPILSSLRKSGLIEVAGEGKREKKLHKITEKGREYLRKHEDEVKEALEIANKLKEFSELGGKEVAQVLREVVENIDKLSEEQKAALAREFSNFVKRIKLILLGGEQYGGNNSGEPR,soluble
14,MADKSSRSLILYGDGLARFVDPSNTNIHSLASVATCGFLSLPNAPPETENERIVREFSHLLDASEAYSIASGLKPKGNGNDISTLAERFMGLKAALVTDSSTLTSFGKLIGLDVLQLSEICQESDSFPSDATSSKLLKLLGFEGGKCLDVNLYDLVFVHFGVDEYNNGNNMGILDSLIGSIMGMAQPGSEILSRLHLSVVLSYGSVTDKDVSVFPIKTPQEDINPAFIGLVPRQSYTMRGEKTRDDVRHYCPMLVAQWQHGVTRKDLVDTLSFEALKKLCGNLVIPADRFIHEVAFKLWKAPKYGA,soluble
15,WSKIEKEQFYIAICAMNKTIAQKLFVLMKKAKKWLLQPDVRELKRFSIIDQKQLIYSYLIYHKINVNGEKIDAILDFIQPSQQKQYRLQNDIFLMVKNQCLALLYK,soluble
16,MADIYPLGKTHTEELNEIIVESAKEIAEPDTTMIQKLIDEHNPEPLLKGVRYYMCENDIEKKRRTYYDAAGQQLVDDTKTNNRTSHAWHKLFVDQKTQYLVGEPVTFTSDNKTLLEYVNELADDDFDDILNETVKNMSNKGIEYWHPFVDEEGEFDYVIFPAEEMIVVYKDNTRRDILFALRYYSYKGIMGEETQKAELYTDTHVYYYEKIDGVYQMDYSYGENNPRPHMTKGGQAIGWGRVPIIPFKNNEEMVSDLKFYKDLIDNYDSITSSTMDSFSDFQQIVYVLKNYDGENPKEFTANLRYHSVIKVSGDGGVDTLRAEIPVDSAAKELERIQDELYKSAQAVDNSPETIGGGATGPALEKLYALLDLKANMAERKIRAGLRLFFWFFAEYLRNTGKGDFNPDKELTMTFTRTRIQNDSEIVQSLVQGVTGGIMSKETAVARNPFVQDPEEELARIEEEMNQYAEMQGNLLDDEGGDDDLEEDDPNAGAAESGGAGQVS,soluble
17,MTQVYDGFVHLGFSNRNGRTISHKKYQEGNSRVSADNSDANGVPYYFLINMGGGFVEGEQYQVTIDVNKDAHALVTTQTPTYVYKCEKGQLTQQNTSITLEENSYLEYMADEVIPYLKSRYFQTSRIDMDKSAHLIYSDGVTAGWSHEDLPFQYHYFRNLTQIYQDNELVYSDQTLLEPEKQDMFKLGYFEGWRNYNSLVMVSPNIDEAFVKALQKHLEGLNLESDFAISSLDISGLVLRILGKTAEDNRRIIYSCADYFRQEIHGLTPLNLRKNDMRRLEHHHHHH,soluble
18,MAQNNENALPDITKSITLEAPIQKVWETVSTSEGIAKWFMPNDFQLKEGQEFHLQSPFGPSPCKVLAVQAPTELSFEWDTEGWVVTFQLEDLGEKTGFTLIHSGWKEPNEVIGKANEKSSVVRGKMDGGWTGIVNERLRKAVEE,not soluble
19,FFFSGGVPLDASLFEHKKLDPTQVRQVLQLVLWKLESLRQWEKERITGCIQAVAEHLQLKLRDVMPLMFPAITGHASSVSVLDAMEILGADLSRYRLRQALELLGGASKKETKEWEKIRDAIPG,not soluble
